B1: Hammerhead Ribozyme (parent)
chain: ACCGGAUGUGCUUUCCGGUCUGAUGAGUCCGUGAGGACGAAACAG

Variants of: B1
Test: self-cleavage, relative activity (ratio to wild type); higher = more cleavage; co-transcriptional

Row | Variant | self-cleavage
1 | ACCGGAUGUGCGUUCCGGUCUGAUGAGUCCGUGAGGAGGAAACAG [U12G C38G] | 0.813
2 | ACCGGAUGUGCUUUCCGGUCUCAUGAGUGCGUGAGGACGAAACAG [G22C C29G] | 0.266
3 | ACCGGAUGUGCUUUCCGGACUGAUGAGUCCGUGAGGACCAAACAG [U19A G39C] | 0.329
4 | ACCGGAUGUACUUUGCGGUCUGAUGAGUCCGUGAGGACGAAACAG [G10A C15G] | 0.899
5 | ACCGGAUGUGCUUUCCGGUUUGAUGAGUCCGUGAAGACGAAACAG [C20U G35A] | 0.412
6 | ACCGGAUGGGCUUUCCGGUCUGAUGAGUCCGUGAGGACGAAACAA [U9G G45A] | 0.426
7 | ACCGGAUGUGCUUUCCGAUCUUAUGAGUCCGUGAGGACGAAACAG [G18A G22U] | 0.373
8 | ACCGGAUGUGAUUUCCGGUCGGAUGAGUCCGUGAGGACGAAACAG [C11A U21G] | 0.713
9 | ACCGGAUGUGCUUUCCGGUCUGAUGAGUCUGCGAGGACGAAACAG [C30U U32C] | 1.05
10 | ACCGGAUGUGCUUUCCGGACUGAUGAGUCCAUGAGGACGAAACAG [U19A G31A] | 0.41
11 | ACCGGAUGUGCUUUCCGGUCUGAUGGAUCCGUGAGGACGAAACAG [A26G G27A] | 0.27
12 | ACCGGAUGUGCUUUCGGGUUUGAUGAGUCCGUGAGGACGAAACAG [C16G C20U] | 0.408
13 | ACCGGAUGUGCUUUCCGGUCUGAUGAGUCCGUGGGGACGAGACAG [A34G A41G] | 0.339
14 | ACCGGAUGAGCUUUCCGGUCUGAUGCGUCCGUGAGGACGAAACAG [U9A A26C] | 0.532
15 | ACCGGAUGUGCUUCCCGGUCUGAUGAGUCGGUGAGGACGAAACAG [U14C C30G] | 0.65
16 | ACCGUAUCUGCUUUCCGGUCUGAUGAGUCCGUGAGGACGAAACAG [G5U G8C] | 0.942
17 | ACCGGAUGUGCUUUACGGUCUGAGGAGUCCGUGAGGACGAAACAG [C15A U24G] | 0.743
18 | CCCGGAUGUGCUUUCCGGUCUGAUGAGUCCGUGAGGACGAAACGG [A1C A44G] | 0.594
19 | ACCGGAUAGGCUUUCCGGUCUGAUGAGUCCGUGAGGACGAAACAG [G8A U9G] | 0.85

Row | Variant | self-cleavage
20 | ACCGGAUGUUCUUUCCGGUAUGAUGAGUCCGUGAGGACGAAACAG [G10U C20A] | 0.42
21 | AGCGGAUGUGCUUUCCGGUCUGAUGAGUCCAUGAGGACGAAACAG [C2G G31A] | 0.43
22 | ACCGGAAGUGCUUUCCGGUCUGAUGUGUCCGUGAGGACGAAACAG [U7A A26U] | 0.556
23 | ACCGGAUGUGCUAUCCGGUCUGAUGAGUCCGUAAGGACGAAACAG [U13A G33A] | 1.29
24 | ACCGGAUGUGCUUUCCGGUCUGAUGGGUCCGUGAGGACUAAACAG [A26G G39U] | 0.343
25 | ACCGCAUGUGCUUUCCGGUCUGAUGAGUACGUGAGGACGAAACAG [G5C C29A] | 0.256
26 | ACCGGAUGUGCUUUCGGGUCUGAUGAGUCCGUUAGGACGAAACAG [C16G G33U] | 1.09
27 | ACCGGAUGUGCUUUCCGGUCUGAUGAGUCCGCGGGGACGAAACAG [U32C A34G] | 0.896
28 | ACCGGAUGUGCAUACCGGUCUGAUGAGUCCGUGAGGACGAAACAG [U12A U14A] | 0.798
29 | ACCGGAGGUGCUUUCCGGUCAGAUGAGUCCGUGAGGACGAAACAG [U7G U21A] | 0.345
30 | ACCGGAUGUGCUUUCCGGUCUGAGGAGUCCGUGCGGACGAAACAG [U24G A34C] | 0.823
31 | ACCGGAUGUUCUUUCCGGUCUGUUGAGUCCGUGAGGACGAAACAG [G10U A23U] | 0.421
32 | ACCGGAUGUGCUUACCGGUCUGAUGAGUCCGUUAGGACGAAACAG [U14A G33U] | 0.872
33 | ACCGGAUGUGCUUUCCUGUCUGAUGAGUCCGUGAGGAGGAAACAG [G17U C38G] | 0.539
34 | ACCGGAUGUGCUUUCCGGUCUGAUGUGUCCGUGAGGACUAAACAG [A26U G39U] | 0.296
35 | ACCGGAUGUGCUUUCCGGUCUGAGGAGUCCGUGAGGACGUAACAG [U24G A40U] | 0.308
36 | ACCGGAUGUGCUUUCCGGGCUGAUGAGUCCGUGCGGACGAAACAG [U19G A34C] | 0.349
37 | ACCGGAUGUGCUUUCCGGGCUGAUGAGUCCGUGAGUACGAAACAG [U19G G36U] | 0.301
38 | AACGGAUGUGCUUUCCGGUCUGAUGAGUCCUUGAGGACGAAACAG [C2A G31U] | 0.828

Row | Variant | self-cleavage
39 | UCCGGAUGGGCUUUCCGGUCUGAUGAGUCCGUGAGGACGAAACAG [A1U U9G] | 0.348
40 | ACCGGAUGUGCUUUCCGGUCUGAUGAGUCCGUUAGGACUAAACAG [G33U G39U] | 0.343
41 | ACCGGAUGCGCUUUCCGGUCUGAUGAGUGCGUGAGGACGAAACAG [U9C C29G] | 0.601
42 | ACCGGAUGUGCUUUUCGCUCUGAUGAGUCCGUGAGGACGAAACAG [C15U G18C] | 0.491
43 | ACCGGAUGUGCGUUCCCGUCUGAUGAGUCCGUGAGGACGAAACAG [U12G G17C] | 0.436
44 | ACCGGAUGUGCUUUCCGGUCUGAUGAGUCCGUGAGGACGAAAUCG [C43U A44C] | 1.93
45 | ACAGGAUGUGCUUUCCGGUCUGAUGAGCCCGUGAGGACGAAACAG [C3A U28C] | 0.354
46 | ACCGGACGUGCUUUCCGGUCUGAUGAGUCCGUGAGGACGAAAGAG [U7C C43G] | 0.346
47 | AUCGGAUGUGCUUUCCGGUCUGAUGAGUCCGUGAGGACGAAACAG [C2U] | 1.17
48 | ACCGGAUGUGCUUUCCGGUCUGAUGAGUCCGUGAGAAUGAAACAG [G36A C38U] | 0.531
49 | ACCGGAUGUGCUUUCCGGUCUGAUGAGUCCGUGAGGACAAAACCG [G39A A44C] | 0.39
50 | UCCGGAUGUGCUUUCCGGUCUGAAGAGUCCGUGAGGACGAAACAG [A1U U24A] | 1.04
51 | ACCCGAUGUGCUUUCCAGUCUGAUGAGUCCGUGAGGACGAAACAG [G4C G17A] | 0.298
52 | ACCAGAUGUGCUUUCCGGUCUGAUGAGUCCGUGAGGACGAAAGAG [G4A C43G] | 0.29
53 | ACCGGAUGUGCUUUCCGGUCUUAAGAGUCCGUGAGGACGAAACAG [G22U U24A] | 0.316
54 | ACCGAAUGUGCUUUCCGGUCUGAUGAGUCCGUGAGGACGAACCAG [G5A A42C] | 0.359
55 | ACCUGAUGUGCUUUCCGGUCUGAUGAGUCCGUGAGGGCGAAACAG [G4U A37G] | 0.305
56 | ACCGGAUGUGCUUUCCGGUCUGAUGAGUCCGGUAGGACGAAACAG [U32G G33U] | 0.838
57 | ACCGUAUGUGCUUUCCGGUCUGAUGAGUCCGUGAGUACGAAACAG [G5U G36U] | 0.327

Source: the RNAGym collection of RNA variant scans (doi:10.7554/elife.80360)
